From patent publication US20230137032A1 (GlaxoSmithKline, published 2023)

What was measured:
[1] = target: T1, human BCMA expressed on cells (human, UniProt Q02223 1-184); test: FACS on H929 cells, PE anti-human IgG, MFI
T1 construct: whole, on cells; also called human BCMA HEK293; ARH77-hBCMA 10B5 BCMA expressing transfectant cells
T1 sequence (looked up): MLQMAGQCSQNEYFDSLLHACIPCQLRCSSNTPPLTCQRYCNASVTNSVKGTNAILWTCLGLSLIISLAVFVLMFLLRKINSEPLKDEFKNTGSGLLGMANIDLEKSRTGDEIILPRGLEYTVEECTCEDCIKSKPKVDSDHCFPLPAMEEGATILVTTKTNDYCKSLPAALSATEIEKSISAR
Procedure: (§1) Cells were then washed with FACS buffer (PBS+0.5% BSA+0.1% sodium azide) to remove unbound antibody. Cells were incubated with a secondary PE labelled anti-human IgG antibody for 15 minutes at RT and then washed with FACS buffer to remove unbound antibody. Cells were analysed by FACS and mean fluorescence intensity (MFI) values measured to determine binding.

[2] = target: T1, human BCMA expressed on cells; test: FACS on JJN-3 cells, PE anti-human IgG, MFI
Procedure: as §1

[3] = target: T2, recombinant cyno BCMA, in house material (cyno, UniProt A0A2K5UD97 4-52); test: ProteOn SPR run 1, antibody captured on Protein A, 25C
T2 construct: also called Cyno in house BCMA

[4] = target: T3, recombinant human BCMA, commercial (US Biological, B0410) (human, UniProt Q02223 5-54, limits assumed); test: ProteOn SPR run 2, antibody captured on Protein A, 25C
T3 construct: also called commercial human BCMA; Human commercial BCMA
T3 chain (looked up): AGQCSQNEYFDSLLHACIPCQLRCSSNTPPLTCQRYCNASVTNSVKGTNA

[5] = target: T2, recombinant cyno BCMA, in house material; test: as above
[6] = target: T3, recombinant human BCMA, commercial (US …); test: Biacore T100, antibody captured on Protein A, 37C, experiment 1
Procedure: (§2) Protein A was immobilised on a CMS chip (GE Healthcare, Cat No: BR-1005-30) by primary amine coupling and this surface was then used to capture the antibody molecules. Recombinant human BCMA (US Biological, B0410) was used as analyte at 256 nM, 64 nM, 16 nM, 4 nM and 1 nM. Regeneration of the capture surface was carried out using 50 mM NaOH. All binding curves were double referenced with a buffer injection (i.e. 0 nM) the data was fitted to the using the 1:1 model inherent to T100 evaluation software. The run was carried out at 25° C. and 37° C. for experiment 1 and only 37° C. for experiment 2 using HBS-EP as the running buffer.

[7] = target: T3, recombinant human BCMA, commercial (US …); test: Biacore T100, antibody captured on Protein A, 37C, experiment 2
Procedure: as §2

[8] = target: T4, recombinant human BCMA, in house material (human, UniProt Q02223 4-53, limits assumed); test: ProteOn SPR run 1, antibody captured on Protein A, 25C; Run 1 (Table 8)
T4 construct: also called Human in house BCMA; In house human BCMA
Procedure: The initial screen of CA8 chimeric and humanised variants was carried out on the ProteOn XPR36 (Biorad). The method was as follows; Protein A was immobilised on a GLC chip (Biorad, Cat No: 176-5011) by primary amine coupling, CA8 variants were then captured on this surface and recombinant human BCMA (in house or commercial US Biological, B0410) materials (run 2 only)) passed over at 256, 64, 16, 4, 1 nM with a 0 nM injection (i.e. buffer alone) used to double reference the binding curves, the buffer used is the HBS-EP buffer. 50 mM NaOH was used to regenerate the capture surface. The data was fitted to the 1:1 model using the analysis software inherent to the ProteOn XPR36. […] Both runs were carried out at 25° C.

[9] = target: T5, recombinant human BCMA Fc 4-53 (human); test: ELISA, neutralisation of ligand binding to plate-coated BCMA Fc 4-53; competitor BAFF; competitor BAFF
T5 construct: also called Human BCMA CD33-hBCMA ECD (4-53) TEV-Fc; recombinant BCMA
Procedure: (§3) 96 well flat bottomed plates were coated overnight with 1 μg/mL solution of recombinant human BCMA Fc 4-53 in PBS. Following a wash step using 0.05% TWEEN20, plates were blocked with 2% Bovine Serum Albumin solution in PBS for 1 hour at room temperature. […] 40 μL of 2% BSA was added to the relevant control wells. […] Equivalent volume of 2% BSA was added to the relevant control wells. Plates were allowed to incubate for 2 hours at room temperature, after which they were washed as before. […] Following a wash step, 50 µL of a 1:4000 dilution of Streptavidin-HRP (Amersham RPN4401) was added to each well and incubated for 30 minutes at room temperature. The wash process was repeated again followed by the addition of […] of Tetramethylbenzidine substrate solution (T8665, Sigma) into each well. Plates were incubated for 20-25 minutes at room temperature, wrapped in foil. The reaction was stopped with the addition of […] of 1M H₂SO₄. Optical density was determined at 450 nm using Spectromax reader.

[10] = target: T5, recombinant human BCMA Fc 4-53; test: ELISA, neutralisation of ligand binding to plate-coated BCMA Fc 4-53; competitor APRIL; competitor APRIL
Procedure: as §3

[11] = target: T1, human BCMA expressed on cells; test: FMAT cell binding on HEK293 cells transfected with human BCMA, anti-human IgG FMAT Blue detection
Procedure: Cryopreserved transfected human, cyno BCMA and mock transfected HEK293 cells were recovered from LN2 storage. […] The assay plates were left for a minimum of 90 minutes before the result was read on the ABI8200 (FMAT) plate reader.

[12] = target: T5, recombinant human BCMA Fc 4-53; test: competition ELISA: binding of recombinant human BAFF to coated recombinant human BCMA Fc 4-53, biotinylated anti-BAFF and streptavidin-HRP, % of control
Procedure: as §3

[13] = target: T5, recombinant human BCMA Fc 4-53; test: competition ELISA: binding of recombinant human APRIL to coated recombinant human BCMA Fc 4-53, biotinylated anti-APRIL and streptavidin-HRP, % of control
Procedure: as §3

B1: CA8 chimera antibody (human chimeric CA8) (antibody, V domains shown)
VH: EVQLQQSGAVLARPGASVKMSCKGSGYTFTNYWMHWVKQRPGQGLEWIGATYRGHSDTYYNQKFKGKAKLTAVTSTSTAYMELSSLTNEDSAVYYCTRGAIYNGYDVLDNWGQGTLVTVSS
VL: DIQLTQTTSSLSASLGDRVTISCSASQDISNYLNWYQQKPDGTVELVIYYTSNLHSGVPSRFSGSGSGTDYSLTIGYLEPEDVATYYCQQYRKLPWTFGGGSKLEIKR
notes: also called Chimera CA8; CA8 chimeric antibody
EC50 (read off the curve) [1]: ~0.3 µg/mL | EC50 (read off the curve) [2]: ~0.2 µg/mL | Kd [3]: 0.457 nM | Kd [4]: 0.139 nM | Kd [5]: 2.06 nM | Kd [6]: 0.051 nM | Kd [7]: 0.055 nM | Kd [8]: 0.519 nM | EC50 [9]: 0.695 µg/mL | EC50 [10]: 0.773 µg/mL | EC50 (read off the curve) [11]: ~0.4 µg/mL | IC50 (read off the curve) [12]: ~0.7 µg/mL | IC50 (read off the curve) [13]: ~0.8 µg/mL
